Test results reported in paper PMC8442553 (Science (New York, N.Y.), 2019).

How the values were obtained:
Assay in all cases: cryo-EM structure
Sth1 = biological target: T1, Sth1 (yeast, UniProt P32597 1-1359)
T1 sequence: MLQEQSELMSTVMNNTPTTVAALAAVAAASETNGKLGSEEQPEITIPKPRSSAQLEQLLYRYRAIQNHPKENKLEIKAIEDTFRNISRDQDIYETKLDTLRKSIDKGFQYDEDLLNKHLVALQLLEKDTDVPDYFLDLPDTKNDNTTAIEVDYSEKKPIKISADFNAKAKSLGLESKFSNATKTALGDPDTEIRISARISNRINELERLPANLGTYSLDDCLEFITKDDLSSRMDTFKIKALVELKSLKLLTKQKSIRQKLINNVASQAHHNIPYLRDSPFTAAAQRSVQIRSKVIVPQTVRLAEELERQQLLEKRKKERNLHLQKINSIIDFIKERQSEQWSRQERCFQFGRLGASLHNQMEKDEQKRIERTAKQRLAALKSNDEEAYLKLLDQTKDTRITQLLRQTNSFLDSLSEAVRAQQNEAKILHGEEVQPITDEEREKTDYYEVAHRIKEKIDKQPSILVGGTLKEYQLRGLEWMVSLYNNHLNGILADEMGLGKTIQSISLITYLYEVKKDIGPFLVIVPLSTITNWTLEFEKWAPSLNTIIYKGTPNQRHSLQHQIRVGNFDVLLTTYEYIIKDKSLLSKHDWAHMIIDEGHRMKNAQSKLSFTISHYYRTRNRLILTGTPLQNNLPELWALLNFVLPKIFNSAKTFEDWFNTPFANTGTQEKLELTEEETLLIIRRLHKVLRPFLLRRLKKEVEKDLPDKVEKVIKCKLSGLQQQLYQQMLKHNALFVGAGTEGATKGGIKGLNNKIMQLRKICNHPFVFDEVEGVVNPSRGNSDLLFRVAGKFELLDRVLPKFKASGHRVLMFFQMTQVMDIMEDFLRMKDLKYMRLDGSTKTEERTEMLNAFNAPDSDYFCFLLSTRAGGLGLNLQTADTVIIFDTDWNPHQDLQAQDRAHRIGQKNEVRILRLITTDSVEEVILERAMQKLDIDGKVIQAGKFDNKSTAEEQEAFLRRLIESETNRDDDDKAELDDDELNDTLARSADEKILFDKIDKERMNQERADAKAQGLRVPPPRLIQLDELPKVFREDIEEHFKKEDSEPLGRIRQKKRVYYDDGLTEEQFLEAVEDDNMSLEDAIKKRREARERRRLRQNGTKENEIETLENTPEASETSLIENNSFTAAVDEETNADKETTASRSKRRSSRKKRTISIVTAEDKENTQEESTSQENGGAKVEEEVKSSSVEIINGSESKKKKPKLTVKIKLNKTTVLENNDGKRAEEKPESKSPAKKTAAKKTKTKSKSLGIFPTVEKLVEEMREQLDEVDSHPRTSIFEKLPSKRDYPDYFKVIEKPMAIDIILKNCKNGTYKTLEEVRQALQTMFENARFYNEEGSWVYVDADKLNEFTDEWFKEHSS

Rsc3 = biological target: T2, Rsc3 (yeast, UniProt Q06639 1-885)
T2 sequence: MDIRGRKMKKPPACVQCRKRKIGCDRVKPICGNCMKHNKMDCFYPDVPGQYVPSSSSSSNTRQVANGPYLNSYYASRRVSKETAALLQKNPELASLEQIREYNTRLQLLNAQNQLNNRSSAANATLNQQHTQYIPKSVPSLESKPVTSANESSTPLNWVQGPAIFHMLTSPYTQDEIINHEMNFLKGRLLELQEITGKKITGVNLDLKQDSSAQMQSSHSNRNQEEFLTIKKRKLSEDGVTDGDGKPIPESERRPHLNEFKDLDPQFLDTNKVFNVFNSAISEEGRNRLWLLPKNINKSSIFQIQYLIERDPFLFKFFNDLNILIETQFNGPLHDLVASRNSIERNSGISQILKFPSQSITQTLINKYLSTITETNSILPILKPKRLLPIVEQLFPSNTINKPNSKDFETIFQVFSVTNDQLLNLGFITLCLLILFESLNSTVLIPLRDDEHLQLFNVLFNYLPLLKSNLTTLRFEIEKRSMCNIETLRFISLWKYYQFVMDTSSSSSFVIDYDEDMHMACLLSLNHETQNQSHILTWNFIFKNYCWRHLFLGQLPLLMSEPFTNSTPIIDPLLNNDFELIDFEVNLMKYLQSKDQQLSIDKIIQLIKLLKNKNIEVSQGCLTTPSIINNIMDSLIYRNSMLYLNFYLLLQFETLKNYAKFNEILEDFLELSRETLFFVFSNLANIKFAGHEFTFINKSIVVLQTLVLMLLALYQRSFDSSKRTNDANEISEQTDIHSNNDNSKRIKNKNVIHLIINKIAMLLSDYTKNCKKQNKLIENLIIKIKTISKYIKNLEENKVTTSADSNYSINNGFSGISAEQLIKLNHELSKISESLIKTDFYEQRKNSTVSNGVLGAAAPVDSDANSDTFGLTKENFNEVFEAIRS

Rsc30 = biological target: T3, Rsc30 (yeast, UniProt P38781 1-883)
T3 sequence: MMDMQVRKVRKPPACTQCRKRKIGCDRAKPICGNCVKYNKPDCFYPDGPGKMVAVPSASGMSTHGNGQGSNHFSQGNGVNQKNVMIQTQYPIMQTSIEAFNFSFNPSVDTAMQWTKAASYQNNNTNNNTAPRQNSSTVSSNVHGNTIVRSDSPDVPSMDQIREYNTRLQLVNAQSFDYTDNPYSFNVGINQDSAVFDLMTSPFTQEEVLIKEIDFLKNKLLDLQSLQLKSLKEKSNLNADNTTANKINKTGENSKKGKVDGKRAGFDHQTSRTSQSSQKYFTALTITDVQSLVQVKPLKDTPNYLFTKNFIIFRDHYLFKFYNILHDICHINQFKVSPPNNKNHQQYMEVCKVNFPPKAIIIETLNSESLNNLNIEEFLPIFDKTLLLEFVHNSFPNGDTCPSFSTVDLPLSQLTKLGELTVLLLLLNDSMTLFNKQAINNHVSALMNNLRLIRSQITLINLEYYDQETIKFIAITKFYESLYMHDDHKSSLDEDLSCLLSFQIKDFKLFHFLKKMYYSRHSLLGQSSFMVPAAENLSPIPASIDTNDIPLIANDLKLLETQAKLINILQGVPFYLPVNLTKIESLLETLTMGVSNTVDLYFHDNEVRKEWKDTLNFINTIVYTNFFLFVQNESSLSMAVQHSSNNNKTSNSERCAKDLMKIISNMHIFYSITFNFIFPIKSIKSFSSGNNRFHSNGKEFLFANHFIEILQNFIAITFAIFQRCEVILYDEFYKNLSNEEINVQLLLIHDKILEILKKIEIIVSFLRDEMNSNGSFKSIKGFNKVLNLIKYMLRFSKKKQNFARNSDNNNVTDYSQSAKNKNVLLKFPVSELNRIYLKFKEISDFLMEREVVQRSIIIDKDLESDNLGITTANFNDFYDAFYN

Measured: binding result

B1: Rsc9 (natural protein, yeast)
chain: MNSLASNTPLNGTPVSEAPATSSEPVNMFETMVANPIKVSRLQSNGVLTGPAANTKSIHYSLANFNVFQSLPKETARGVDDLTRMEMALLSGIPEEIKWSLKKYLTYSNKAPYMISLRTLPDLLPLFKTFILPLERIVEGLNKSSICDSKAMDSLQMGLNALLILRNLAQDTDSVQILVKDREIKSFILFILKKFQCVATGDNKWQLYEGNATFFNELTHYTLDLMEAISSYIAPAMKDDHYFQTLVSILNYTKDRYMVISILRSLSRLLVRSKANEESAADNLDHKTLSLIVSFLLLECDSELIIASLDFLYQYILPGSQRITELFKSKECSLILEATLPNLLSYNIATPDYHLLQKHKIRLIKRLKPPAPKEPPNLSEDLFQQLFKLNEPLRSTAWLRCCFEPVQEAEFTQISLWRSYESKFGQPVRESGRKLLPAVEFIKNVSNAFNNAAAIVITDPVTGKKRFVIKGIQPRFKALGIADGERESQVPISALKSKFLNDSKEITPARQNSIPEVKFPQELSDVSKVACTFLCLLSNDTDDGAGSAFCQRIRPLVLHKLADIPPLTLALSEYMENTSGL
binds: Sth1 | Rsc3 | Rsc30
